Assay results reported in patent publication US20230002480A1.

Assays:
Assay in all cases: cell-based or functional assay
[1] = target: HIV-1 Env of pseudovirus 1006_11_C3_1601 (HIV-1)
[2] = target: HIV-1 Env of pseudovirus 1012_11_TC21_3257 (HIV-1)
[3] = target: HIV-1 Env of pseudovirus 1394C9G1(Rev-) (HIV-1)
[4] = target: HIV-1 Env of pseudovirus 211-9 (HIV-1)
[5] = target: HIV-1 Env of pseudovirus 3016.v5.c45 (HIV-1)
[6] = target: HIV-1 Env of pseudovirus 3103.v3.c10 (HIV-1)
[7] = target: HIV-1 Env of pseudovirus 6041.v3.c23 (HIV-1)
[8] = target: HIV-1 Env of pseudovirus 620345.c01 (HIV-1)
[9] = target: HIV-1 Env of pseudovirus 6244_13_B5_4576 (HIV-1)
[10] = target: HIV-1 Env of pseudovirus 6540.v4.c1 (HIV-1)
[11] = target: HIV-1 Env of pseudovirus 7030102001E5(Rev-) (HIV-1)
[12] = target: HIV-1 Env of pseudovirus 89-F1_2_25 (HIV-1)
[13] = target: HIV-1 Env of pseudovirus A07412M1.vrc12 (HIV-1)
[14] = target: HIV-1 Env of pseudovirus BJOX028000.10.3 (HIV-1)
[15] = target: HIV-1 Env of pseudovirus CNE17 (HIV-1)
[16] = target: HIV-1 Env of pseudovirus CNE21 (HIV-1)
[17] = target: HIV-1 Env of pseudovirus CNE30 (HIV-1)
[18] = target: HIV-1 Env of pseudovirus CNE5 (HIV-1)
[19] = target: HIV-1 Env of pseudovirus CNE8 (HIV-1)
[20] = target: HIV-1 Env of pseudovirus Ce2060_G9 (HIV-1)
[21] = target: HIV-1 Env of pseudovirus Du172.17 (HIV-1)
[22] = target: HIV-1 Env of pseudovirus Du422.1 (HIV-1)
[23] = target: HIV-1 Env of pseudovirus HIV-001428-2.42 (HIV-1)
[24] = target: HIV-1 Env of pseudovirus HIV-16845-2.22 (HIV-1)
[25] = target: HIV-1 Env of pseudovirus Q842.d12 (HIV-1)
[26] = target: HIV-1 Env of pseudovirus QH0692.42 (HIV-1)
[27] = target: HIV-1 Env of pseudovirus R1166.c01 (HIV-1)
[28] = target: HIV-1 Env of pseudovirus R3265.c06 (HIV-1)
[29] = target: HIV-1 Env of pseudovirus REJO4541.67 (HIV-1)
[30] = target: HIV-1 Env of pseudovirus SC05_8C11_2344 (HIV-1)
[31] = target: HIV-1 Env of pseudovirus T255-34 (HIV-1)
[32] = target: HIV-1 Env of pseudovirus T257-31 (HIV-1)
[33] = target: HIV-1 Env of pseudovirus THRO4156.18 (HIV-1)
[34] = target: HIV-1 Env of pseudovirus TRO.11 (HIV-1)
[35] = target: HIV-1 Env of pseudovirus X1193_c1 (HIV-1)
[36] = target: HIV-1 Env of pseudovirus X1632_S2_B10 (HIV-1)
[37] = target: HIV-1 Env of pseudovirus ZM214M.PL15 (HIV-1)

For PGT145 (antibody), the IC50 [1] was greater than 50 µg/mL, the IC80 [1] was greater than 50 µg/mL and the IC50 [2] was 0.009 µg/mL. It also gave an IC80 [2] of 0.025 µg/mL, an IC50 [3] of 0.001 µg/mL and an IC80 [3] of 0.005 µg/mL. The IC50, titer in TZM.bl cells [4] was 0.129 µg/mL, the IC80, titer in TZM.bl cells [4] was 0.923 µg/mL and the IC50, titer in TZM.bl cells [5] was greater than 50 µg/mL. The IC80, titer in TZM.bl cells [5] was greater than 50 µg/mL, the IC50, titer in TZM.bl cells [6] was 0.043 µg/mL and the IC80, titer in TZM.bl cells [6] was 0.164 µg/mL. The IC50, titer in TZM.bl cells [7] was 0.964 µg/mL, the IC80, titer in TZM.bl cells [7] was greater than 50 µg/mL and the IC50, titer in TZM.bl cells [8] was 0.241 µg/mL. For the same substance, the IC80, titer in TZM.bl cells [8] was 19.7 µg/mL, the IC50 [9] was 7.27 µg/mL and the IC80 [9] was 44.5 µg/mL. The IC50, titer in TZM.bl cells [10] was 0.08 µg/mL, the IC80, titer in TZM.bl cells [10] was 5.09 µg/mL and the IC50 [11] was greater than 50 µg/mL. The IC80 [11] was greater than 50 µg/mL, the IC50, titer in TZM.bl cells [12] was 0.8 µg/mL and the IC80, titer in TZM.bl cells [12] was 20 µg/mL. For the same substance, the IC50, titer in TZM.bl cells [13] was 0.002 µg/mL, the IC80, titer in TZM.bl cells [13] was 0.023 µg/mL and the IC50, titer in TZM.bl cells [14] was greater than 50 µg/mL. It also gave an IC80, titer in TZM.bl cells [14] greater than 50 µg/mL, an IC50 [15] of 0.091 µg/mL and an IC80 [15] of 1.16 µg/mL. For the same substance, the IC50 [16] was less than 0.001 µg/mL, the IC80 [16] was 0.009 µg/mL and the IC50 [17] was greater than 50 µg/mL. For the same substance, the IC80 [17] was greater than 50 µg/mL, the IC50, titer in TZM.bl cells [18] was 0.001 µg/mL and the IC80, titer in TZM.bl cells [18] was 0.013 µg/mL. The IC50, titer in TZM.bl cells [19] was 0.272 µg/mL, the IC80, titer in TZM.bl cells [19] was 2.24 µg/mL and the IC50 [20] was 0.016 µg/mL. For the same substance, the IC80 [20] was 0.205 µg/mL, the IC50 [21] was greater than 50 µg/mL and the IC80 [21] was greater than 50 µg/mL. The IC50 [22] was 22.6 µg/mL, the IC80 [22] was greater than 50 µg/mL and the IC50 [23] was 0.001 µg/mL. It also gave an IC80 [23] of 0.083 µg/mL, an IC50 [24] greater than 50 µg/mL and an IC80 [24] greater than 50 µg/mL. For the same substance, the IC50 [25] was 0.032 µg/mL, the IC80 [25] was 0.552 µg/mL and the IC50 [26] was greater than 50 µg/mL. For the same substance, the IC80 [26] was greater than 50 µg/mL, the IC50, titer in TZM.bl cells [27] was 2.27 µg/mL and the IC80, titer in TZM.bl cells [27] was 17.9 µg/mL. The IC50, titer in TZM.bl cells [28] was 0.037 µg/mL, the IC80, titer in TZM.bl cells [28] was 0.227 µg/mL and the IC50 [29] was less than 0.001 µg/mL. It also gave an IC80 [29] of 0.001 µg/mL, an IC50 [30] of 0.093 µg/mL and an IC80 [30] of 0.248 µg/mL. The IC50, titer in TZM.bl cells [31] was greater than 50 µg/mL, the IC80, titer in TZM.bl cells [31] was greater than 50 µg/mL and the IC50 [32] was 5.18 µg/mL. For the same substance, the IC80 [32] was greater than 50 µg/mL, the IC50 [33] was 0.01 µg/mL and the IC80 [33] was 0.029 µg/mL. The IC50 [34] was 0.04 µg/mL, the IC80 [34] was 0.118 µg/mL and the IC50, titer in TZM.bl cells [35] was 0.013 µg/mL. For the same substance, the IC80, titer in TZM.bl cells [35] was 0.091 µg/mL, the IC50, titer in TZM.bl cells [36] was 0.012 µg/mL and the IC80, titer in TZM.bl cells [36] was 2.03 µg/mL. The IC50 [37] was greater than 50 µg/mL and the IC80 [37] was greater than 50 µg/mL.
With PGT151 (antibody) the IC50 [1] was 2.89 µg/mL, the IC80 [1] was greater than 50 µg/mL and the IC50 [2] was greater than 50 µg/mL. The IC80 [2] was greater than 50 µg/mL, the IC50 [3] was 0.022 µg/mL and the IC80 [3] was 0.733 µg/mL. For the same substance, the IC50, titer in TZM.bl cells [4] was 0.002 µg/mL, the IC80, titer in TZM.bl cells [4] was 0.01 µg/mL and the IC50, titer in TZM.bl cells [5] was 0.174 µg/mL. It also gave an IC80, titer in TZM.bl cells [5] of 40.7 µg/mL, an IC50, titer in TZM.bl cells [6] of 0.014 µg/mL and an IC80, titer in TZM.bl cells [6] of 0.202 µg/mL. For the same substance, the IC50, titer in TZM.bl cells [7] was 0.004 µg/mL, the IC80, titer in TZM.bl cells [7] was 0.024 µg/mL and the IC50, titer in TZM.bl cells [8] was greater than 50 µg/mL. The IC80, titer in TZM.bl cells [8] was greater than 50 µg/mL, the IC50 [9] was greater than 50 µg/mL and the IC80 [9] was greater than 50 µg/mL. It also gave an IC50, titer in TZM.bl cells [10] of 0.006 µg/mL, an IC80, titer in TZM.bl cells [10] of 0.03 µg/mL and an IC50 [11] of 0.001 µg/mL. The IC80 [11] was 0.011 µg/mL, the IC50, titer in TZM.bl cells [12] was 22.9 µg/mL and the IC80, titer in TZM.bl cells [12] was greater than 50 µg/mL. It also gave an IC50, titer in TZM.bl cells [13] of 0.246 µg/mL, an IC80, titer in TZM.bl cells [13] greater than 50 µg/mL and an IC50, titer in TZM.bl cells [14] greater than 50 µg/mL. For the same substance, the IC80, titer in TZM.bl cells [14] was greater than 50 µg/mL, the IC50 [15] was 0.093 µg/mL and the IC80 [15] was greater than 50 µg/mL. It also gave an IC50 [16] of 0.004 µg/mL, an IC80 [16] of 0.012 µg/mL and an IC50 [17] greater than 50 µg/mL. The IC80 [17] was greater than 50 µg/mL, the IC50, titer in TZM.bl cells [18] was greater than 50 µg/mL and the IC80, titer in TZM.bl cells [18] was greater than 50 µg/mL. For the same substance, the IC50, titer in TZM.bl cells [19] was greater than 50 µg/mL, the IC80, titer in TZM.bl cells [19] was greater than 50 µg/mL and the IC50 [20] was 0.135 µg/mL. The IC80 [20] was greater than 50 µg/mL, the IC50 [21] was 0.003 µg/mL and the IC80 [21] was 0.013 µg/mL. It also gave an IC50 [22] of 4.6 µg/mL, an IC80 [22] greater than 50 µg/mL and an IC50 [23] of 0.027 µg/mL. For the same substance, the IC80 [23] was greater than 50 µg/mL, the IC50 [24] was greater than 50 µg/mL and the IC80 [24] was greater than 50 µg/mL. The IC50 [25] was 0.001 µg/mL, the IC80 [25] was 0.014 µg/mL and the IC50 [26] was 0.029 µg/mL. The IC80 [26] was 0.522 µg/mL, the IC50, titer in TZM.bl cells [27] was greater than 50 µg/mL and the IC80, titer in TZM.bl cells [27] was greater than 50 µg/mL. The IC50, titer in TZM.bl cells [28] was greater than 50 µg/mL, the IC80, titer in TZM.bl cells [28] was greater than 50 µg/mL and the IC50 [29] was 0.018 µg/mL. It also gave an IC80 [29] of 0.119 µg/mL, an IC50 [30] of 0.06 µg/mL and an IC80 [30] greater than 50 µg/mL. For the same substance, the IC50, titer in TZM.bl cells [31] was 0.002 µg/mL, the IC80, titer in TZM.bl cells [31] was 0.01 µg/mL and the IC50 [32] was 0.003 µg/mL. For the same substance, the IC80 [32] was 0.01 µg/mL, the IC50 [33] was greater than 50 µg/mL and the IC80 [33] was greater than 50 µg/mL. The IC50 [34] was greater than 50 µg/mL, the IC80 [34] was greater than 50 µg/mL and the IC50, titer in TZM.bl cells [35] was 0.004 µg/mL. For the same substance, the IC80, titer in TZM.bl cells [35] was 0.027 µg/mL, the IC50, titer in TZM.bl cells [36] was 0.061 µg/mL and the IC80, titer in TZM.bl cells [36] was greater than 50 µg/mL. For the same substance, the IC50 [37] was 0.008 µg/mL and the IC80 [37] was 0.045 µg/mL.
